Assay: yeast display, Sf9 membrane polyspecificity reagent, FACS + sequencing; frameworks hold sequencing errors
Method in brief: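 Genes from sorted yeast were amplified by colony PCR, read by MiSeq 2 × 250 sequencing and filtered on CDR length. These cells carried a synthetic nanobody library in Saccharomyces cerevisiae BJ5465 and were sorted by FACS into low and high (top ~1%) gates on anti-HA and streptavidin fluorescence. Polyreactivity is labelled according to the gate of origin.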
With “QVQLVESGGGLVQSGGSLRLSCAASGSIFYTNAMGWYRQAPGKERELVAAISYGGTTTYADSVKGRFTISRDNAKNTVYLQMNSQKPEDTAVYYCNADWLYYGYWGYGHIWYDYWGQGTQVTVSS” the “polyreactivity (PSR sort gate)” value was “low polyreactivity”.
With “QVQLVESGGGLVQSGGSLRLSCAASGSSFLWYGMGSYRQAPGKERELVASISRGGGTDYADSVKGRFTISRDNAKNTVYLQMNSLKPEDTAVYYCAATGVKRYDHWGQGTQVTVSS” the “polyreactivity (PSR sort gate)” value was “low polyreactivity”.
In the case of “QVQLVESGGGLVQSGGSLRLSCAASGSTFKYYAMGWYRQAPGKERELVAAISRSGGSTYYADSVKGRFTISRDNAKNTVYIQMNSLKPEDTAVYYCNAYYRYSFCELDKYGYWGQGTQVTVSS”, the “polyreactivity (PSR sort gate)” value is reported as “high polyreactivity”.
In the case of “QVQLVESGGGLVQSGGSLRLSCAASGSTFVSYDMGWYRQAPGKERELVADISWSGVSTYADSVKGRFTNSRDNAKNTVYLQMNSLKPEDTAVYYCAKDCDLYQRGGYYWGQGTQVTVSS”, the “polyreactivity (PSR sort gate)” value is reported as “low polyreactivity”.
With “QVQLVESGGGLVQSGGSLRLSCAASGSTLSVYVMGWYRQAPGKERELVARIRSGGNTYYADSVKGRFTISRDNAKNTVYLLMNSLKPEDTAVYYCNADPSTGWYKYDYWGQGTQVTVSS” the “polyreactivity (PSR sort gate)” value was “high polyreactivity”.
In the case of “QVQLVESGGGLVQSGGSLRLSCAASGSTLYFKAMGWYRQAPGKERDLVAAITYDGGSTYYADSVKGRFTISRDNAKNTVYLQMNSLKPEDTAVYYCAGRTDGYRNNYWGQGTQVTVSS”, the “polyreactivity (PSR sort gate)” value is reported as “high polyreactivity”.
With “QVQLVESGGGLVQSGGSLRLSCAASGYIFGYYAMGWYRQAPGKERELVADITWRGDSTYADSVKGRFTISRDNAKNTVYLQMNSLKPEDTAVYYCAADIATEYWYTGYDHWGQGTQVNVSS” the “polyreactivity (PSR sort gate)” value was “low polyreactivity”.
In the case of “QVQLVESGGGLVQSGGSLRLSCAASVRIFGPYVMGWYRQAPGKERELVAAISTSGTSTYDADSVKGRFTISRDNAKNTVYLQMNSLKPEDTAVYYCAKRSGALHRLMDYWGQGTQVTVSS”, the “polyreactivity (PSR sort gate)” value is reported as “low polyreactivity”.
With “QVQLVESGGGLVQSGGSLRLSCAATGSTFWNYAMGWYRQAPGKERELVAAITRGSSTNYADSVKGRFTISRDNAKNTVYLQMNSMKPEDTAVYYCAKRVGRWSAFYYWGQGTQVTVSS” the “polyreactivity (PSR sort gate)” value was “high polyreactivity”.
In the case of “QVQLVESGGGLVQSGGSLRLSCAYSGRTFYRNTMGWYRHAPGKEREFVAAISATAGRTYYADSVKWRFTISRDNAKNTVYLQMNSLKPEDTAVYYCAAVPLRNRWANSWPALDYWGQGTLVTVSS”, the “polyreactivity (PSR sort gate)” value is reported as “high polyreactivity”.
With “QVQLVESGGGLVQSGGSLRLSCDASGRIFSRYAMGWYIQAPGKEREFVAAISRSGTSTYYADSVKVRFTISRDNAKNTVYLQMNSLKPEDTAVYYCAADYPAVISIRRYDYWGQGTQVTVSS” the “polyreactivity (PSR sort gate)” value was “low polyreactivity”.
In the case of “QVQLVESGGGLVQSGGSLRLTCAASGTLFYAMGWSRQAPGKERELVATITQRGGSTYYADSVKGRFTLSRDNAKNTVYLQMNSLKPEDTAVYYCAAAIYRASRRRTSYSYDYCGQGTQVTVSS”, the “polyreactivity (PSR sort gate)” value is reported as “high polyreactivity”.
With “QVQLVESGGGLVQTGGSLRISCAASGSTFYYYAIGWYRQAAGKERELVAGISWGGGSTYYEDSVKGRFTISRDNAKNTVYLQMNSLKPEDTAVYYCNALNPKSYDYWGHGTQVTVSS” the “polyreactivity (PSR sort gate)” value was “low polyreactivity”.
With “QVQLVESGGGLVQTGGSLRLSCASSGRIFFDNAMGWYSQAPGKERELVAGIDSGGSTYYADSVKGRFSISRDNAKNTVYLQMNRLKPEDTAVYYCNADYPPSTQSPLLQSYDYWGHGTQVTVSS” the “polyreactivity (PSR sort gate)” value was “low polyreactivity”.
With “QVQLVESGGGLVQVGGSLRLSCAASGFTFLGYAMGWYRQAPGKEREMVAAITTGGGSTYYAVSVKGRFTISRDNATTTVYLQMNSLKPEDTAVYYCAARRNVRPRYGYWGQGTQVTVSS” the “polyreactivity (PSR sort gate)” value was “high polyreactivity”.
For “QVQLVESGGGLVQVGGSLRLSCAASGLTFYANAMGWYRQAPGKEREVVAAIRKRGGSTYYADSVKGRFTISRDNAKNTVYFQMNSLKPEDTAVYYGATYGGPFSVGTGFHDVRYDYWGHGTQVTVSS”, the “polyreactivity (PSR sort gate)” value was “low polyreactivity”.
In the case of “QVQLVESGGGLVQVGGSLRLSCAASGSILTDYGMGWNRPAPGKERELVAVIDFSSGSTYYADSVKGRFTISRDNAKNTVYLQMNSLKPEDTAVYYCAAGPDPLGEDYWGQGTQVTVSS”, the “polyreactivity (PSR sort gate)” value is reported as “low polyreactivity”.
In the case of “QVQLVESGGGLVRAGGSLRLSCAASGSTFGENAMGWYRQAPGKERELVAAISDSGGDTYYADSVKGRFTISRDNAKNTVYLQMNSLKPEDTAVYYCAADRYGYWYAYYSWGQGTQVTVSS”, the “polyreactivity (PSR sort gate)” value is reported as “low polyreactivity”.
With “QVQLVESGGGLVRAGGSLRLSCAASGSTFRQYAMGWYRQAPGKERDLVAAINWSGSSTYYADSVKGRFTISRDNAKNTVYLQMNSLKPEATAVYYCAARRVLATFQHSNSHYYWGQGTQVTVSS” the “polyreactivity (PSR sort gate)” value was “high polyreactivity”.
For “QVQLVESGGGLYQAGGSLRLSCAASGRIFYCYAMGSYRQAPGKERELVAAISWRGGRTYYADSVKGRFTISRDNAKNTVYLQMNSLIPEDTAVYYCNTDFPPQGQLRNMSYWGQGTQVTVSS”, the “polyreactivity (PSR sort gate)” value was “high polyreactivity”.
In the case of “QVQLVESGGGSVQAGGRLRLSCAASGSIFGQYAMGWYRQAPGKERELVAAISDTDSTNYADSVKGRFTISRDNAKNTVYLQMNSLKPEDTAVYYCNADTWGYRLGYYYYKFDYWGQGTQVTVSS”, the “polyreactivity (PSR sort gate)” value is reported as “low polyreactivity”.
For “QVQLVESGGGSVQAGGSLRISCAASGSIFSLYAMGWYRQAPGKERELVASISSDGSTYYADSVKGRFTISRDNAKNTVYLQMNSLKPEDTAVNYCATAVYSRYSPYAGYYYWGQGTQVTVSS”, the “polyreactivity (PSR sort gate)” value was “low polyreactivity”.
For “QVQLVESGGGSVQAGGSLRLCCAASGRILESYAMGWYRQAPGKERELVAAINSGASTYYADSVKGRFTISRDNAKNTVYLPMNSLKPEDTAVYYCAADYRYGAYDDWGQGTQVTVSS”, the “polyreactivity (PSR sort gate)” value was “low polyreactivity”.
With “QVQLVESGGGSVQAGGSLRLSCAASGIIFWYYTMGWYRQATGKERELVAAISWSSGITYYADSLKGRFTISRDNAKNTVYLQMNSLKPEDTAVYYCSAGYYKGFTLVRVIFDYWGQGTQVTVSS” the “polyreactivity (PSR sort gate)” value was “low polyreactivity”.
In the case of “QVQLVESGGGSVQAGGSLRLSCAASGITSYGYAMGWYRQAPGKERDLVASISRTGGNTYADSVKGRFTISRDNAKNTVYLQMNSLKPEDTAVYYCNAGRSWDYWYGYDYWGQGTQVTVSS”, the “polyreactivity (PSR sort gate)” value is reported as “low polyreactivity”.
In the case of “QVQLVESGGGSVQAGGSLRLSCAASGRTFVRYAMGWYRQAPGKERELVAAITWSGGSTYYADSVKGRFTISRDNAKNTVYLQMNSLKPEDTAVFNCADYPVQWGSLYDYWGQGTQVTVSS”, the “polyreactivity (PSR sort gate)” value is reported as “high polyreactivity”.
In the case of “QVQLVESGGGSVQAGGSLRLSCAASGSTIRYYAMGWYRQAPGKERELVARITSRAGRTYYADSVKGRFTISRDNAKNTVYLQMNSLKPEDTAVYYCNTRDFSGYVHALSLYDYWGQGTQVTVSS”, the “polyreactivity (PSR sort gate)” value is reported as “high polyreactivity”.
In the case of “QVQLVESGGGSVQAGGSLRLSCAASGYIFGVYAMGWYRQAPGKERELVAAISSGGSTNYADSVKGRFTISRDNAKNTVYLQMNSLKPEDTAVYYCNADYIFYYEYDYWGQGTQVTVSS”, the “polyreactivity (PSR sort gate)” value is reported as “low polyreactivity”.
For “QVQLVESGGGVGQAGGSLRLSCAASGLSCVDYAMGWYRQAPGKERELVAAISTTGGSTYYADSVKGRFTISRDNAKNTVYLQMKSLKPEDTAVYYCNARFVHHSWGTNYYWGQGTQVTVSS”, the “polyreactivity (PSR sort gate)” value was “high polyreactivity”.
For “QVQLVESGGGVVQAGGSLRFSCAASGSIFPGYAMGWYRQAPGKEREMVATITWSGGTTYYADSVKGRFTISRDYAKNTVYFQMNSLKPEDTAVYYCNATFGYPFLDYDDYWGQGTQVNVSS”, the “polyreactivity (PSR sort gate)” value was “low polyreactivity”.
For “QVQLVESGGGVVQAGGSLRISCAASRLIFRRNAMGWYGQAPGKERELVAAISRTGGSTYDADSVKGRFTISRDNAKNPVYLQRNSLIPEDTAVYYCATDTRDYDYTDEYWGHGTQVTVSS”, the “polyreactivity (PSR sort gate)” value was “low polyreactivity”.
In the case of “QVQLVESGGGVVQAGGSLRLSCAASGFIFSYNVMVWYRQAPGKERELVAAISSSGGSTYYADSVKGRFTISRDNAKNTAYLQMNSLKPEDTAVYYCATRVSRSFRAYDYWGQGTQVTVSS”, the “polyreactivity (PSR sort gate)” value is reported as “high polyreactivity”.
With “QVQLVESGGGVVQAGGSLRLSCAASGFIYRWNAMGLNRQAPGKERELVAAMSARGGSTYDADSVKGRFTIARDNAKNTVYLPMNSLKPEDTAVYYCARAKRVHTEYDYWGQGTQVTVSS” the “polyreactivity (PSR sort gate)” value was “high polyreactivity”.
With “QVQLVESGGGVVQAGGSLRLSCAASGITFNGNAMGWYRQAPGKERELVATISRSDGRTYYADSVKGRFTISRDNAKNTDYFQMNSLKPEDTAVYYCAAYTTRPYWGQGTQVTVSS” the “polyreactivity (PSR sort gate)” value was “high polyreactivity”.
In the case of “QVQLVESGGGVVQAGGSLRLSCAASGLIFRRYAMGWYRQAPGIERELVAAISGNGGSTYYADSVKGRFTISRDKAKNTVYVQMNCLKPEDTAVYYCAARSLGIYNYWGQGTQVTVSS”, the “polyreactivity (PSR sort gate)” value is reported as “high polyreactivity”.
For “QVQLVESGGGVVQAGGSLRLSCAASGRICAYYTMGWYRQAPGKERELVAAINQSGGSTYYADSVKGRFTISRDNAKYTEYLQMNSLKPEDTAVFYCAAQPTIYSTPHPEYNYWGQGTQVNVSS”, the “polyreactivity (PSR sort gate)” value was “low polyreactivity”.
With “QVQLVESGGGVVQAGGSLRLSCAASGRIFARYTMGWYRQAPGKEREFVAGIRSSGGRTYYADSVKGRFTISRDTAKNTVYLQMNSLKPEDSAVYYCNAGGSWYFARYDYWGEGTQVTVSS” the “polyreactivity (PSR sort gate)” value was “low polyreactivity”.
In the case of “QVQLVESGGGVVQAGGSLRLSCAASGRIFVYYMGWYRQAPGKERVLVAAISVGGGSTYYADSVKGRFTISRDHAKNTVYLQMNSLKPEDTAVYYCAAAWSNYFGDPSYYWGQGTQVTVSS”, the “polyreactivity (PSR sort gate)” value is reported as “low polyreactivity”.
In the case of “QVQLVESGGGVVQAGGSLRLSCAASGRIFYYNARGWYRQAPGKERELVAVISRNGGRTYYADSVKGRFTISRDNAKITVYLQMNSLKPEDTAVYYCAARSAGDRYDYWGQGTQVTVSS”, the “polyreactivity (PSR sort gate)” value is reported as “high polyreactivity”.
In the case of “QVQLVESGGGVVQAGGSLRLSCAASGRINARYAMGWYRQAPGKERELVAAITSGGGTYYADSVKGRFTISRDNAKNTVYLQMNSLKPEDTAVYYCAARWLSRGYEYYYWGQGTQVTVSS”, the “polyreactivity (PSR sort gate)” value is reported as “high polyreactivity”.
For “QVQLVESGGGVVQAGGSLRLSCAASGRTFKPYAMGWYRQAPGKERELVAAISSGVSTHYADSVKGRFTISRDNAKNTVYLQMNSLKPEDTAVYYCAADYWVNYWFDYWGQGTQVTVSS”, the “polyreactivity (PSR sort gate)” value was “low polyreactivity”.
For “QVQLVESGGGVVQAGGSLRLSCAASGRTFMVNAMGWYRQAPGKERELVAAISQRGGSTDYADSVKGRFTISRDNAKNTVYLQMNSLIPEDTAVYYCAADSLRGSAPTYYSTLEYWGQGTQVTVSS”, the “polyreactivity (PSR sort gate)” value was “low polyreactivity”.
With “QVQLVESGGGVVQAGGSLRLSCAASGRTFSYNALGWNRQAPGKEREVVAAINGDGGSTYYADSVKGRFTSSRDNAKNTVYLQMNSLKPEDTAVYYCNRRGIYRYGYWGQGTEVTVSS” the “polyreactivity (PSR sort gate)” value was “high polyreactivity”.

Reference: the nanobody polyreactivity screen of Harvey et al. (2022)
